From IntAct's records for PubMed 31515488

B1: Phospholipid scramblase 4 (Homo sapiens), Q9NRQ2 (parent)
chain: MSGVVPTAPEQPAGEMENQTKPPDPRPDAPPEYNSHFLPGPPGTAVPPPTGYPGGLPMGYYSPQQPSTFPLYQPVGGIHPVRYQPGKYPMPNQSVPITWMPGPTPMANCPPGLEYLVQLDNIHVLQHFEPLEMMTCFETNNRYDIKNNSDQMVYIVTEDTDDFTRNAYRTLRPFVLRVTDCMGREIMTMQRPFRCTCCCFCCPSARQELEVQCPPGVTIGFVAEHWNLCRAVYSIQNEKKENVMRVRGPCSTYGCGSDSVFEVKSLDGISNIGSIIRKWNGLLSAMADADHFDIHFPLDLDVKMKAMIFGACFLIDFMYFERSPPQRSR
partner: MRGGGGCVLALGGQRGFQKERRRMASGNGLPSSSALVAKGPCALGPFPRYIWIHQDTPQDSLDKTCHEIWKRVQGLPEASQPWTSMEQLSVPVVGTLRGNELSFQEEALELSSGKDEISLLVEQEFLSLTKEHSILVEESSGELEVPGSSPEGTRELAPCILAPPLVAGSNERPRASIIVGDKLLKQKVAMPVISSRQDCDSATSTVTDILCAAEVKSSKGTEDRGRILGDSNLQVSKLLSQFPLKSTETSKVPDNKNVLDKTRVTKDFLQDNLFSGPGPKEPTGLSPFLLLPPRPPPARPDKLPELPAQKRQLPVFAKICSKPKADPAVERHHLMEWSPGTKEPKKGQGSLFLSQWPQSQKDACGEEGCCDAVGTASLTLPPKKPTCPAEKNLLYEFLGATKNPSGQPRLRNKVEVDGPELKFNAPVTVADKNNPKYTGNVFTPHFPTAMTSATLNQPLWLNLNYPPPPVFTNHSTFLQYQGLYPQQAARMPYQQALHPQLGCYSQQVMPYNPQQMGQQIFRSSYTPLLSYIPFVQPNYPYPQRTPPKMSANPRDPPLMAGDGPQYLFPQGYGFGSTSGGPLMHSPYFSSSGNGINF
B2: Segment polarity protein dishevelled homolog DVL-2 (Homo sapiens), O14641 (parent)
chain: MAGSSTGGGGVGETKVIYHLDEEETPYLVKIPVPAERITLGDFKSVLQRPAGAKYFFKSMDQDFGVVKEEISDDNARLPCFNGRVVSWLVSSDNPQPEMAPPVHEPRAELAPPAPPLPPLPPERTSGIGDSRPPSFHPNVSSSHENLEPETETESVVSLRRERPRRRDSSEHGAGGHRTGGPSRLERHLAGYESSSTLMTSELESTSLGDSDEEDTMSRFSSSTEQSSASRLLKRHRRRRKQRPPRLERTSSFSSVTDSTMSLNIITVTLNMEKYNFLGISIVGQSNERGDGGIYIGSIMKGGAVAADGRIEPGDMLLQVNDMNFENMSNDDAVRVLRDIVHKPGPIVLTVAKCWDPSPQAYFTLPRNEPIQPIDPAAWVSHSAALTGTFPAYPGSSSMSTITSGSSLPDGCEGRGLSVHTDMASVTKAMAAPESGLEVRDRMWLKITIPNAFLGSDVVDWLYHHVEGFPERREARKYASGLLKAGLIRHTVNKITFSEQCYYVFGDLSGGCESYLVNLSLNDNDGSSGASDQDTLAPLPGATPWPLLPTFSYQYPAPHPYSPQPPPYHELSSYTYGGGSASSQHSEGSRSSGSTRSDGGAGRTGRPEERAPESKSGSGSESEPSSRGGSLRRGGEASGTSDGGPPPSRGSTGGAPNLRAHPGLHPYGPPPGMALPYNPMMVVMMPPPPPPVPPAVQPPGAPPVRDLGSVPPELTASRQSFHMAMGNPSEFFVDVM
partner: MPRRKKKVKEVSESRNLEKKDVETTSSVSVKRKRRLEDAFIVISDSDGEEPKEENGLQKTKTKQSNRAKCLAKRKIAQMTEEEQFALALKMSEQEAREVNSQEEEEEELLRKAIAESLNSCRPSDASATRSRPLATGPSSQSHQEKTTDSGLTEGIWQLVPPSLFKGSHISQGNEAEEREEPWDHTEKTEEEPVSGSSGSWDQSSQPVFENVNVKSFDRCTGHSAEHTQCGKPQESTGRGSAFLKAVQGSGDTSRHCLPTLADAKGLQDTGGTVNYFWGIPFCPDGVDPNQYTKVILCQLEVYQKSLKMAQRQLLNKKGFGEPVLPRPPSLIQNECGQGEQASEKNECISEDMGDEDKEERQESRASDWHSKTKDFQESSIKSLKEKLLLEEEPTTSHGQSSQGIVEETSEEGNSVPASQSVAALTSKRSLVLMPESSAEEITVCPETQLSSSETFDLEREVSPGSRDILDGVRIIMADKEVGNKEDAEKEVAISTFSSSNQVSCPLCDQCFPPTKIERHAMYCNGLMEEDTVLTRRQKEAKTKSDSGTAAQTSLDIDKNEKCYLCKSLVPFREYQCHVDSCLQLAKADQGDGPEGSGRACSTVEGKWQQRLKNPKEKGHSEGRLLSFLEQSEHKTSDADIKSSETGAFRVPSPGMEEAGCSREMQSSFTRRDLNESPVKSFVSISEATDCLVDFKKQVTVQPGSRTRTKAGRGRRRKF
B3: Centrosomal protein of 55 kDa (Homo sapiens), Q53EZ4 (parent)
chain: MSSRSTKDLIKSKWGSKPSNSKSETTLEKLKGEIAHLKTSVDEITSGKGKLTDKERHRLLEKIRVLEAEKEKNAYQLTEKDKEIQRLRDQLKARYSTTTLLEQLEETTREGERREQVLKALSEEKDVLKQQLSAATSRIAELESKTNTLRLSQTVAPNCFNSSINNIHEMEIQLKDALEKNQQWLVYDQQREVYVKGLLAKIFELEKKTETAAHSLPQQTKKPESEGYLQEEKQKCYNDLLASAKKDLEVERQTITQLSFELSEFRRKYEETQKEVHNLNQLLYSQRRADVQHLEDDRHKTEKIQKLREENDIARGKLEEEKKRSEELLSQVQFLYTSLLKQQEEQTRVALLEQQMQACTLDFENEKLDRQHVQHQLHVILKELRKARNQITQLESLKQLHEFAITEPLVTFQGETENREKVAASPKSPTAALNESLVECPKCNIQYPATEHRDLLVHVEYCSK
partner: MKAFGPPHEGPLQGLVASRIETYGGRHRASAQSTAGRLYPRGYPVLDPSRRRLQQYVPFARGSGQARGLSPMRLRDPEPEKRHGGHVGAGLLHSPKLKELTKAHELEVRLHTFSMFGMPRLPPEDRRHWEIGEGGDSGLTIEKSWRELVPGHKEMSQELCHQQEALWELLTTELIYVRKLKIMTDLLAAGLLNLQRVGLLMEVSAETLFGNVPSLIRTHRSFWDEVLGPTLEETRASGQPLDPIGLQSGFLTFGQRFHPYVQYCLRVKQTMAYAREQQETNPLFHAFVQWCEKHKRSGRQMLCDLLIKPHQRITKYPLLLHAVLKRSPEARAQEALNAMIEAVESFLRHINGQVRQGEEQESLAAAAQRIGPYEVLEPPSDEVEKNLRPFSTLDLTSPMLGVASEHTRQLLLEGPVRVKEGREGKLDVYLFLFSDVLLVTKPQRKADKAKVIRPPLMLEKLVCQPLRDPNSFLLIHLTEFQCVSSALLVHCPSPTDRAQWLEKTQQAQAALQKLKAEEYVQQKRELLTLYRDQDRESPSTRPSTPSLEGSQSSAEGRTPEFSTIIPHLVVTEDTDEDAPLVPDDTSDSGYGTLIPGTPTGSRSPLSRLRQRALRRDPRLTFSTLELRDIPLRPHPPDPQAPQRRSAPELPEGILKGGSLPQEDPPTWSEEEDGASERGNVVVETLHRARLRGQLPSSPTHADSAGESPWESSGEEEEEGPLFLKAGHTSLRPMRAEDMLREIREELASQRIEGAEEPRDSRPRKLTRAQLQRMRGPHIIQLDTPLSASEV
B4: Tuftelin-interacting protein 11 (Homo sapiens), Q9UBB9 (parent)
chain: MSLSHLYRDGEGRIDDDDDERENFEITDWDLQNEFNPNRQRHWQTKEEATYGVWAERDSDDERPSFGGKRARDYSAPVNFISAGLKKGAAEEAELEDSDDEEKPVKQDDFPKDFGPRKLKTGGNFKPSQKGFAGGTKSFMDFGSWERHTKGIGQKLLQKMGYVPGRGLGKNAQGIINPIEAKQRKGKGAVGAYGSERTTQSMQDFPVVDSEEEAEEEFQKELSQWRKDPSGSKKKPKYSYKTVEELKAKGRISKKLTAPQKELSQVKVIDMTGREQKVYYSYSQISHKHNVPDDGLPLQSQQLPQSGKEAKAPGFALPELEHNLQLLIDLTEQEIIQNDRQLQYERDMVVNLFHELEKMTEVLDHEERVISNLSKVLEMVEECERRMQPDCSNPLTLDECARIFETLQDKYYEEYRMSDRVDLAVAIVYPLMKEYFKEWDPLKDCTYGTEIISKWKSLLENDQLLSHGGQDLSADAFHRLIWEVWMPFVRNIVTQWQPRNCDPMVDFLDSWVHIIPVWILDNILDQLIFPKLQKEVENWNPLTDTVPIHSWIHPWLPLMQARLEPLYSPIRSKLSSALQKWHPSDSSAKLILQPWKDVFTPGSWEAFMVKNIVPKLGMCLGELVINPHQQHMDAFYWVIDWEGMISVSSLVGLLEKHFFPKWLQVLCSWLSNSPNYEEITKWYLGWKSMFSDQVLAHPSVKDKFNEALDIMNRAVSSNVGAYMQPGARENIAYLTHTERRKDFQYEAMQERREAENMAQRGIGVAASSVPMNFKDLIETKAEEHNIVFMPVIGKRHEGKQLYTFGRIVIYIDRGVVFVQGEKTWVPTSLQSLIDMAK
partner: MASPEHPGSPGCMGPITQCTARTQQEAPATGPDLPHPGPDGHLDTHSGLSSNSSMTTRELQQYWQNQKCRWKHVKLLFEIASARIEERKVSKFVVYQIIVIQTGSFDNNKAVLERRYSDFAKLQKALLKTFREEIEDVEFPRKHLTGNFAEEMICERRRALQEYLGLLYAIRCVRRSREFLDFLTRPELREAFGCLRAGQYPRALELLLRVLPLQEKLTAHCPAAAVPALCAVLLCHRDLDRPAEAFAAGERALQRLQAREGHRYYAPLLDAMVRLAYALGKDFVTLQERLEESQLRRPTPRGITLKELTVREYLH

Variants of: B1
Details: with ca094_human C1orf94, Q6P1W5

effect of a mutation on the interaction | Variant
with no effect | MSGVVPTAPEQPAGEMENQTKPPDPRPDAPPEYSSHFLPGPPGTAVPPPTGYPGGLPMGYYSPQQPSTFPLYQPVGGIHPVRYQPGKYPMPNQSVPITWMPGPTPMANCPPGLEYLVQLDNIHVLQHFEPLEMMTCFETNNRYDIKNNSDQMVYIVTEDTDDFTRNAYRTLRPFVLRVTDCMGREIMTMQRPFRCTCCCFCCPSARQELEVQCPPGVTIGFVAEHWNLCRAVYSIQNEKKENVMRVRGPCSTYGCGSDSVFEVKSLDGISNIGSIIRKWNGLLSAMADADHFDIHFPLDLDVKMKAMIFGACFLIDFMYFERSPPQRSR [N34S]
with no effect | MSGVVPTAPEQPAGEMENQTKPPDPRPDAPPEYNSHFLPGPPGTAVPPPTGYPGGLPMGYYSPQQPSTFPLYQPVGGIHPVRYQPGKYPMPNQSVPITWMPGPTPMSNCPPGLEYLVQLDNIHVLQHFEPLEMMTCFETNNRYDIKNNSDQMVYIVTEDTDDFTRNAYRTLRPFVLRVTDCMGREIMTMQRPFRCTCCCFCCPSARQELEVQCPPGVTIGFVAEHWNLCRAVYSIQNEKKENVMRVRGPCSTYGCGSDSVFEVKSLDGISNIGSIIRKWNGLLSAMADADHFDIHFPLDLDVKMKAMIFGACFLIDFMYFERSPPQRSR [A107S]

Variants of: B2
Details: with uimc1_human UIMC1, Q96RL1

effect of a mutation on the interaction | Variant
with no effect | R415Q

Variants of: B3
Details: with pkhg6_human PLEKHG6, Q3KR16

effect of a mutation on the interaction | Variant
with no effect | MSSRSTKDLIKSKWGSKPSNSKSETTLEKLKGEIAHLKTSVDEITSGKGKLTDKERHRFLEKIRVLEAEKEKNAYQLTEKDKEIQRLRDQLKARYSTTTLLEQLEETTREGERREQVLKALSEEKDVLKQQLSAATSRIAELESKTNTLRLSQTVAPNCFNSSINNIHEMEIQLKDALEKNQQWLVYDQQREVYVKGLLAKIFELEKKTETAAHSLPQQTKKPESEGYLQEEKQKCYNDLLASAKKDLEVERQTITQLSFELSEFRRKYEETQKEVHNLNQLLYSQRRADVQHLEDDRHKTEKIQKLREENDIARGKLEEEKKRSEELLSQVQFLYTSLLKQQEEQTRVALLEQQMQACTLDFENEKLDRQHVQHQLHVILKELRKARNQITQLESLKQLHEFAITEPLVTFQGETENREKVAASPKSPTAALNESLVECPKCNIQYPATEHRDLLVHVEYCSK [L59F]

Variants of: B4
Details: with snx20_human SNX20, Q7Z614

effect of a mutation on the interaction | Variant
with no effect | R8Q
